Results as given in US20190064149.

B1: MT4-MMP (protein)
chain: QAPAPTKWNKRNLSWRVRTFPRDSPLGHDTVRALMYYALKVWSDIAPLNFHEVAGSAADIQIDFSKADHNDGYPFDGPGGTVAHAFFPGHHHTAGDTHFDDDEAWTFRSSDAHGMDLFAVAVHEFGHAIGLSHVAAAHSIMRPYYQGPVGDPLRYGLPYEDKVRVWQLYGVRESVSPTAQPEEPPLLPEPPDNRSSAPPRKDVPHRCSTHFDAVAQIRGEAFFFKGKYFWRLTRDRHLVSLQPAQMHRFWRGLPLHLDSVDAVYERTSDHKIVFFKGDRYWVFKDNNVEEGYPRPVSDFSLPPGGIDAAFSWAHNDRTYFFKDQLYWRYDDHTRHMDPGYPAQSPLWRGVPSTLDDAMRWSDGASYFFRGQEYWKVLDGELEVAPGYPQSTARDWLVCGDSQADGSVAAGVDAAEGPRAPPGQHDQSRSEDGYEVCSCTS
B2: MT6-MMP (protein)
chain: YALSGSVWKKRTLTWRVRSFPQSSQLSQETVRVLMSYALMAWGMESGLTFHEVDSPQGQEPDILIDFARAFHQDSYPFDGLGGTLAHAFFPGEHPISGDTHFDDEETWTFGSKDGEGTDLFAVAVHEFGHALGLGHSSAPNSIMRPFYQGPVGDPDKYRLSQDDRDGLQQLYGKAPQTPYDKPTRKPLAPPPQPPASPTHSPSFPIPDRCEGNFDAIANIRGETFFFKGPWFWRLQPSGQLVSPRPARLHRFWEGLPAQVRVVQAAYARHRDGRILLFSGPQFWVFQDRQLEGGARPLTELGLPPGEEVDAVFSWPQNGKTYLVRGRQYWRYDEAAARPDPGYPRDLSLWEGAPPSPDDVTVSNAGDTYFFKGAHYWRFPKNSIKTEPDAPQPMGPNWLDCPAPSSGPRAPRPPKATPVSETCDCQCELNQA

Target: EphA2 having Myc-labeled C-terminal

Row | Protein | EphA2 processed fragment, western blotting
1 | B1 | a processed fragment of EphA2 (small arrow) was detected only in the MT1-MMP-introduced cells
2 | B2 | a processed fragment of EphA2 (small arrow) was detected only in the MT1-MMP-introduced cells
